In the supplement of paper PMC9112550, “Optimization of the antimicrobial peptide Bac7 by deep mutational scanning” (BMC Biology, 2022):

Test system: Escherichia coli TOP10
Assay: shrunken log2 fold change of peptide-encoding DNA abundance (4.5 h post-induction vs induction); higher = less antimicrobial activity (less host growth inhibition)
Settings: time post-induction: 4.5 h; library: site-saturation at positions 5, 18, 19, 20
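Note: peptides expressed intracellularly from a pBAD plasmid library in pooled LB shake-flask culture, induced with 0.3% L-arabinose, DNA abundance read by NGS, three biological replicates, DESeq2 with apeglm shrinkage.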

Row | Sequence | shrunken log2 fold change
1 | RRIRDRPPRLPRPRPRPTMPPRP | -0.121
2 | RRIRQRPPRLPRPRPRPHFMPRP | -0.0158
3 | RRIRARPPRLPRPRPRPNCVPRP | 0.23
4 | RRIRMRPPRLPRPRPRPRNQPRP | 0.484
5 | RRIRQRPPRLPRPRPRPQLYPRP | 0.119
6 | RRIRNRPPRLPRPRPRPQFPPRP | -0.148
7 | RRIRYRPPRLPRPRPRPECVPRP | -0.282
8 | RRIRQRPPRLPRPRPRPLRDPRP | 0.082
9 | RRIRGRPPRLPRPRPRPYLWPRP | 0.146
10 | RRIRLRPPRLPRPRPRPQAWPRP | 0.126
11 | RRIRTRPPRLPRPRPRPLPPPRP | 0.333
12 | RRIRLRPPRLPRPRPRPDNFPRP | 0.0569
13 | RRIRLRPPRLPRPRPRPYMMPRP | -0.594
14 | RRIRNRPPRLPRPRPRPDKKPRP | -0.0263
15 | RRIRDRPPRLPRPRPRPSWFPRP | -0.192
16 | RRIRTRPPRLPRPRPRPWDMPRP | -0.33
17 | RRIRIRPPRLPRPRPRPIETPRP | -0.0467
18 | RRIRERPPRLPRPRPRPWPCPRP | 0.151
19 | RRIRVRPPRLPRPRPRPSFCPRP | 0.212
20 | RRIRFRPPRLPRPRPRPYAMPRP | -0.686
21 | RRIRYRPPRLPRPRPRPYFNPRP | -1.33
22 | RRIRLRPPRLPRPRPRPHWIPRP | -0.162
23 | RRIRNRPPRLPRPRPRPIILPRP | -0.234
24 | RRIRERPPRLPRPRPRPWAMPRP | -0.129
25 | RRIRRRPPRLPRPRPRPPVKPRP | 0.369

Row | Sequence | shrunken log2 fold change
26 | RRIRPRPPRLPRPRPRPFGFPRP | 0.0716
27 | RRIRSRPPRLPRPRPRPTSTPRP | -0.236
28 | RRIRCRPPRLPRPRPRPPDAPRP | 0.354
29 | RRIRMRPPRLPRPRPRPCCAPRP | 0.78
30 | RRIRPRPPRLPRPRPRPEHVPRP | 0.0556
31 | RRIRSRPPRLPRPRPRPRCFPRP | 0.165
32 | RRIRKRPPRLPRPRPRPCEIPRP | 0.128
33 | RRIRWRPPRLPRPRPRPKLSPRP | -0.0389
34 | RRIRLRPPRLPRPRPRPGPLPRP | 0.287
35 | RRIRSRPPRLPRPRPRPVNEPRP | -0.0746
36 | RRIRTRPPRLPRPRPRPRRPPRP | 0.493
37 | RRIRVRPPRLPRPRPRPCLTPRP | -0.0353
38 | RRIRERPPRLPRPRPRPKPAPRP | 0.666
39 | RRIRNRPPRLPRPRPRPASPPRP | 0.154
40 | RRIRLRPPRLPRPRPRPYYAPRP | -0.484
41 | RRIRGRPPRLPRPRPRPANMPRP | -0.139
42 | RRIRLRPPRLPRPRPRPCWDPRP | -0.104
43 | RRIRTRPPRLPRPRPRPYFRPRP | -0.138
44 | RRIRERPPRLPRPRPRPQVCPRP | -0.245
45 | RRIRQRPPRLPRPRPRPCWAPRP | -0.139
46 | RRIRDRPPRLPRPRPRPKYMPRP | -0.326
47 | RRIRWRPPRLPRPRPRPEADPRP | 1.5
48 | RRIRFRPPRLPRPRPRPDEQPRP | 0.00595
49 | RRIRQRPPRLPRPRPRPVKHPRP | -0.629
50 | RRIRGRPPRLPRPRPRPGWPPRP | 1.18

Row | Sequence | shrunken log2 fold change
51 | RRIRQRPPRLPRPRPRPQFEPRP | -0.0143
52 | RRIRKRPPRLPRPRPRPTHPPRP | 0.932
53 | RRIRYRPPRLPRPRPRPPYEPRP | -0.0831
54 | RRIRVRPPRLPRPRPRPWFMPRP | -0.537
55 | RRIRYRPPRLPRPRPRPINAPRP | -0.469
56 | RRIRVRPPRLPRPRPRPLPCPRP | -0.12
57 | RRIRTRPPRLPRPRPRPRGGPRP | 0.334
58 | RRIRMRPPRLPRPRPRPWTCPRP | -0.0398
59 | RRIRHRPPRLPRPRPRPVICPRP | -0.0717
60 | RRIRMRPPRLPRPRPRPTCNPRP | -0.0778
61 | RRIRIRPPRLPRPRPRPRDWPRP | 0.429
62 | RRIRQRPPRLPRPRPRPDKFPRP | -0.513
63 | RRIRKRPPRLPRPRPRPDESPRP | 0.0701
64 | RRIRGRPPRLPRPRPRPQEAPRP | 0.492
65 | RRIRARPPRLPRPRPRPPASPRP | 0.77
66 | RRIRGRPPRLPRPRPRPEMHPRP | 0.242
67 | RRIRPRPPRLPRPRPRPNPEPRP | -0.0226
68 | RRIRLRPPRLPRPRPRPLSWPRP | 0.0186
69 | RRIRQRPPRLPRPRPRPGPMPRP | 0.261
70 | RRIRFRPPRLPRPRPRPEMFPRP | 0.099
71 | RRIRLRPPRLPRPRPRPWDVPRP | -0.0498
72 | RRIRPRPPRLPRPRPRPTPGPRP | 0.533
73 | RRIRWRPPRLPRPRPRPCNDPRP | -0.172
74 | RRIRGRPPRLPRPRPRPLKIPRP | 0.365
75 | RRIRYRPPRLPRPRPRPSMMPRP | -1.21
